Measured values: PMC11197762 (Fundamental Research, 2022)

Molecular target: GST-p53, full-length, wild-type (human, UniProt P04637 1-393)
Assay: pull-down

Chain of GST-p53, full-length, wild-type (P04637 whole entry): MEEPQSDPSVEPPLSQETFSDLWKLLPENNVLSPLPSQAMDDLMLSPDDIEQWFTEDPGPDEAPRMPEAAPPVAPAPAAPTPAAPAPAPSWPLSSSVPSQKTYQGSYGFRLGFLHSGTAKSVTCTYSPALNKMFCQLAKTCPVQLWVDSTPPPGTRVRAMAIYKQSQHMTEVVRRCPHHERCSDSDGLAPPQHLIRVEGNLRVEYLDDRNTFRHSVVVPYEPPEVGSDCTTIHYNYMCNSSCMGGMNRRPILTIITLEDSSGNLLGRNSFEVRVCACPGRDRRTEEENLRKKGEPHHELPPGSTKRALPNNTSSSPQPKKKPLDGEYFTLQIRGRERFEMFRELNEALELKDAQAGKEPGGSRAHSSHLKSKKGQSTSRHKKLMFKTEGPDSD

binding result: binds
B1: BRD4 basic residue-enriched interaction domain (BID, aa 524-579), purified (domain or fragment)
chain: QLAALSQPQQNKPKKKEKDKKEKKKEKHKRKEEVEENKKSKAKEPPPKKTKKNNSS
